T1: full-length isoform 2 ECD of human CD96 with a C89S mutation (His-tagged) (human, UniProt P40200 22-519)
T1 construct: also called His-tagged isoform 2 of human CD96 with a C89S mutation; human CD96 extracellular domain isoform 2 C89S
T1 sequence: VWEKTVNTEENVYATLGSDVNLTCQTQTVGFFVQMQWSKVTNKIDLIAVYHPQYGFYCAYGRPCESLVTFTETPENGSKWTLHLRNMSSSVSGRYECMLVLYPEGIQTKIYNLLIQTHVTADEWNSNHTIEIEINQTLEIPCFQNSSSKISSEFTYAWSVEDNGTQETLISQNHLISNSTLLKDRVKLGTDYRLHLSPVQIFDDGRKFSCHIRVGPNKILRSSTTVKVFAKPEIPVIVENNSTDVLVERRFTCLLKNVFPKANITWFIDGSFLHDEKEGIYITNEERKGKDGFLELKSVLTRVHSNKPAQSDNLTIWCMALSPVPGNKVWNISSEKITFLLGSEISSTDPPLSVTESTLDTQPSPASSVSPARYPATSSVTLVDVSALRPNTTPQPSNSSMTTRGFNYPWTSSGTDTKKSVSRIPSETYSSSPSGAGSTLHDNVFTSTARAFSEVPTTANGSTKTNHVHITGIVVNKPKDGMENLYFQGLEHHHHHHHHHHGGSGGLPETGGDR

T2: wild type full-length human CD96 isoform 2 expressed on CHO cells (human, UniProt P40200-2 22-569)
T2 construct: whole, on cells; also called human CD96-CHO (isoform 2); human CD96 (iso2) CHO cells
T2 sequence (looked up): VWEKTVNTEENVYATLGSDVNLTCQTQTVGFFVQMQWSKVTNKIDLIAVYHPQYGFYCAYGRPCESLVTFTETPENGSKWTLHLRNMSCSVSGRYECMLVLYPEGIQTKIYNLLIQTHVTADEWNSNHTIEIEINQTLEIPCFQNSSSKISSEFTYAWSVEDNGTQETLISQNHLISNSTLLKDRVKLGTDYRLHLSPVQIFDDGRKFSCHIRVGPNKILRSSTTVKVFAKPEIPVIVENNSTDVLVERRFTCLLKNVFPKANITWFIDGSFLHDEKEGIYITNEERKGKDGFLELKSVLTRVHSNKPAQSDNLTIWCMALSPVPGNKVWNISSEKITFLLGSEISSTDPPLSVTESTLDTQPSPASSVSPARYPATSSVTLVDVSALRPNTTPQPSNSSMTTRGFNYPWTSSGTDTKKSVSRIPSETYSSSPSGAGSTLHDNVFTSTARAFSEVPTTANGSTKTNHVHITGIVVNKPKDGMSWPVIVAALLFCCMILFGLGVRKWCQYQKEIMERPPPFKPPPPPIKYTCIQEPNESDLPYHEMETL


Columns and labels:
[1] = molecular target: T1, full-length isoform 2 ECD of human CD96 …; experiment: SPR Biacore T200, geomean of experiments #1 and #2
Protocol: (§1) Briefly, surface plasmon resonance experiments were performed using a Biacore T200 instrument, and the association rate (kₐ), dissociation rate (kd), and dissociation constant (KD) were calculated from each experiment using a 1:1 binding model with Biacore T200 Evaluation Software.
(§2) Multispecific molecules were captured using a 30-sec injection at a flow rate of 10 μl/min to reach about 350 resonance units (RUs). […] The sensor chip was regenerated between cycles with two 30-sec injections of 10 mM glycine, pH 1.5. Sensorgrams were evaluated and fit to a simple Langmuir 1:1 interaction model using the global data analysis option of BIAevaluation 3.0 software. Data quality was verified by visually inspecting deviations and curve fitting, and by evaluating the parameters of Rₘₐₓ, Chi2, and Tc.

[2] = molecular target: T3, full-length ECD of cynomolgus monkey TIGIT (His-tagged) (cynomolgus monkey); experiment: SPR Biacore T200, geomean of experiments #1 and #2
T3 construct: also called His-tagged cynomolgus monkey TIGIT; cyno TIGIT extracellular domain
Protocol: as §1, §2

[3] = molecular target: T4, wild type full-length cynomolgus monkey TIGIT expressed on CHO cells (cynomolgus monkey, UniProt A0A7N9I9V4 89-312); experiment: flow cytometry, cynomolgus TIGIT CHO cells, geomean of 2 experiments
T4 construct: whole, on cells; also called cynomolgus TIGIT-CHO cells

[4] = molecular target: T4, wild type full-length cynomolgus monkey …; experiment: flow cytometry, blocking of CD155-Fc-PE binding to cynomolgus TIGIT CHO cells, geomean of 2 experiments
[5] = molecular target: T2, wild type full-length human CD96 …; experiment: flow cytometry, blocking of CD155-Fc-PE binding to human CD96 (isoform 2) CHO cells, geomean of 3 experiments
Protocol: A 4× concentrated intermediate stock of each multispecific molecule was prepared in a microplate. Antibodies were serially diluted 1-to-3 in FACS buffer. […] Lastly, 25 μL of wild type human CD96-CHO cells (isoform 2), prepared as described above, were added to each well. After a 30-minute incubation on ice, the cells were washed twice with cold FACS Buffer, and the cells were analyzed by flow cytometry (BD LSR Fortessa Flow Cytometer). The data were analyzed using the FlowJo software by sequentially gating on the FSC-A vs. SSC-A and SSC-H vs. SSC-A. Mean fluorescence intensity (MFI) values for PE were calculated, and the data were plotted by GraphPad Prism software and analyzed as described above.

[6] = molecular target: T2, wild type full-length human CD96 …; experiment: flow cytometry, human CD96 (isoform 2) CHO cells, geomean of 2 experiments
Protocol: For the antibody binding assay, a frozen aliquot of human CD96-CHO cells (isoform 1 or isoform 2) was thawed at 37° C. and then transferred to a tube containing DPBS supplemented with 0.5% Bovine Serum Albumin and 0.05% Sodium Azide (FACS Buffer). Cells were centrifuged at 300 g for five minutes. The supernatant was discarded, and cells resuspended in FACS buffer were seeded in a 96-well U-bottom tissue culture plate at a density of 2×10⁵ cells per well in 50 μL. In a separate microplate, a 2× concentrated intermediate stock of each antibody was prepared. Antibodies were serially diluted 1-to-3 in FACS buffer. A total of 11 working dilutions ranging from 60 μg/mL to 0.001 μg/mL were prepared. Fifty microlitres of each dilution were then transferred to the microplate containing human CD96-CHO cells. The cells were then incubated for 45 minutes at 4° C. […] After a 30-minute incubation on ice, the cells were washed twice with cold FACS Buffer, and the cells were analyzed by flow cytometry (BD LSR Fortessa Flow Cytometer). The data were analyzed using the FlowJo software by sequentially gating the FSC-A vs. SSC-A, and SSC-H vs. SSC-A. Mean fluorescence intensity (MFI) values for PE were calculated, and the data were plotted by GraphPad Prism software.

T4 sequence (A0A7N9I9V4 entry or part of it): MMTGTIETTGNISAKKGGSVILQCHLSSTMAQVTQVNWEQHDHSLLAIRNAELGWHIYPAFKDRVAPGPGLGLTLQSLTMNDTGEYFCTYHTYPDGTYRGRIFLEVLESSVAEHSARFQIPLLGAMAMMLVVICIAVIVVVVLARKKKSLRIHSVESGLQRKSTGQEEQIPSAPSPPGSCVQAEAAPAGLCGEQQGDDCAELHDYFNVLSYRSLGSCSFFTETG

Kd [1] [nM]	Kd [2] [nM]	EC50 [3] [µg/mL]	IC50 [4] [µg/mL]	IC50 [5] [µg/mL]	EC50 [6] [µg/mL]	Binder
81.9	4.5	0.165	2.35	5.63	0.196	anti-TIGIT×CD96 multispecific molecule BA123 (bispecific antibody, human IgG1, kappa, lambda, copies: 1 + 1 + 1 + 1) heavy 1: QVQLVQSGAEVKKPGASVKVSCKASGYTFTSYGISWVRQAPGQGLEWMGWISAYNANTNYAQKLQGRVTMTTDTSTSTAYMELRSLRSDDTAVYYCARSAGVLGGMDVWGRGTLVTVSSASTKGPSVFPLAPSSKSTSGGTAALGCLVKDYFPEPVTVSWNSGALTSGVHTFPAVLQSSGLYSLSSVVTVPSSSLGTQTYICNVNHKPSNTKVDKRVEPKSCDKTHTCPPCPAPELLGGPDVFLFPPKPKDTLMISRTPEVTCVVVDVSHEDPEVKFNWYVDGVEVHNAKTKPREEQYNSTYRVVSVLTVLHQDWLNGKEYKCKVSNKALPAPIEKTISKAKGQPREPQVYTLPPSREEMTKNQVSLSCAVKGFYPSDIAVEWESNGQPENNYKTTPPVLDSDGSFFLVSKLTVDKSRWQQGNVFSCSVMHEALHNHYTQKSLSLSPG light 1: not shown heavy 2: EVQLVQSGAEVKKPGSSVKVSCKASGYTFASYGISWVRQAPGQGLEWMGGITPFFNRVDVAEKFQGRVTITADKSTSTAYIELSSLRSEDTAVYYCARDLRRGGVGDAFDIWGRGTLVTVSSASTKGPSVFPLAPSSKSTSGGTAALGCLVKDYFPEPVTVSWNSGALTSGVHTFPAVLQSSGLYSLSSVVTVPSSSLGTQTYICNVNHKPSNTKVDKRVEPKSCDKTHTCPPCPAPELLGGPDVFLFPPKPKDTLMISRTPEVTCVVVDVSHEDPEVKFNWYVDGVEVHNAKTKPREEQYNSTYRVVSVLTVLHQDWLNGKEYKCKVSNKALPLPEEKTISKAKGQPREPQVYTLPPSREEMTKNQVSLWCLVKGFYPSDIAVEWESNGQPENNYKTTPPVLDSDGSFFLYSKLTVDKSRWQQGNVFSCSVMHEALHNHYTQKSLSLSPG light 2: QSALTQPRSVSGSPGQSVTISCTGTSPDVGSHAYRSWYQQHPGKAPKLMIYEVSYRPSGVSNRFSGSKSGNTASLTISGLQAEDEADYYCSSYPPSSATVFGAGTKLTVLGQPKAAPSVTLFPPSSEELQANKATLVCLISDFYPGAVTVAWKADSSPVKAGVETTTPSKQSNNKYAASSYLSLTPEQWKSHRSYSCQVTHEGSTVEKTVAPTEC
19.6	4	0.258	2.81	1.99	0.0951	anti-TIGIT×CD96 multispecific molecule BA127 (bispecific antibody, human IgG1, kappa, lambda, Anti-CD96 arm = BA139, anti-TIGIT arm = BA150; copies: 1 + 1 + 1 + 1) heavy 1: QVQLVQSGAEVKKPGASVKVSCKASGYTFTTYALHWVRQAPGQRLEWMGWINTGSGDTKYSQKFQGRVTITRDTSASTAYMELSSLRSEDTAVYYCARSLGVYYGMDVWGQGTLVTVSSASTKGPSVFPLAPSSKSTSGGTAALGCLVKDYFPEPVTVSWNSGALTSGVHTFPAVLQSSGLYSLSSVVTVPSSSLGTQTYICNVNHKPSNTKVDKRVEPKSCDKTHTCPPCPAPELLGGPDVFLFPPKPKDTLMISRTPEVTCVVVDVSHEDPEVKFNWYVDGVEVHNAKTKPREEQYNSTYRVVSVLTVLHQDWLNGKEYKCKVSNKALPAPIEKTISKAKGQPREPQVYTLPPSREEMTKNQVSLSCAVKGFYPSDIAVEWESNGQPENNYKTTPPVLDSDGSFFLVSKLTVDKSRWQQGNVFSCSVMHEALHNHYTQKSLSLSPG light 1: not shown heavy 2: EVQLVQSGAEVKKPGSSVKVSCKASGYTFASYGISWVRQAPGQGLEWMGGITPFFNRVDVAEKFQGRVTITADKSTSTAYIELSSLRSEDTAVYYCARDLRRGGVGDAFDIWGRGTLVTVSSASTKGPSVFPLAPSSKSTSGGTAALGCLVKDYFPEPVTVSWNSGALTSGVHTFPAVLQSSGLYSLSSVVTVPSSSLGTQTYICNVNHKPSNTKVDKRVEPKSCDKTHTCPPCPAPELLGGPDVFLFPPKPKDTLMISRTPEVTCVVVDVSHEDPEVKFNWYVDGVEVHNAKTKPREEQYNSTYRVVSVLTVLHQDWLNGKEYKCKVSNKALPLPEEKTISKAKGQPREPQVYTLPPSREEMTKNQVSLWCLVKGFYPSDIAVEWESNGQPENNYKTTPPVLDSDGSFFLYSKLTVDKSRWQQGNVFSCSVMHEALHNHYTQKSLSLSPG light 2: QSALTQPRSVSGSPGQSVTISCTGTSPDVGSHAYRSWYQQHPGKAPKLMIYEVSYRPSGVSNRFSGSKSGNTASLTISGLQAEDEADYYCSSYPPSSATVFGAGTKLTVLGQPKAAPSVTLFPPSSEELQANKATLVCLISDFYPGAVTVAWKADSSPVKAGVETTTPSKQSNNKYAASSYLSLTPEQWKSHRSYSCQVTHEGSTVEKTVAPTEC
